Reference: patent publication US20230226096A1 (Orna Therapeutics, Inc., priority 2020, published 2023)
Substitutions are numbered along the chain they refer to.

B1: Aichivirus ETHP4 (nucleic acid, listed as Aichivirus sp.)
DNA: TTACTCCATTCAGCTTCTTCGGAACCTGTTCGGAGGAATTAAACGGGCACCCATACACCCCCACCCCCTTTTTGCAACTTAAGTATGTGTGCTCGTGATCTTGACTCCCACGGAATGGATCGATCCGCTGGAGAACAAACTGCTAGATCCACATCCTCCCTTCCCTTGGGAGGACCTCGGTCCTCCCACATCCTCCCCCCAGCCTGACGTACCACAGGCTGTGTGAAGCCCCCGCGAAAGCCGCTCACGTGGCAATTGTGGGTCCCCCCTTCATTAAGACACCAGGTCTTTCCTCCTTAAGGCTAGTCCCGATGTGTGAATTCACATTGGGCAACTAGTGGTGTCACTGTGCGCTCCCAATCTCGGCCGCGGAGTGCTGTTCCCCAAGCCAAACCCCTGGCCCTTCACTATGTGCCTGGCAAGCATATCTGAGAAGGTGTTCCGCTGTGGCTGCCAGCCTGGTAACAGGTGCCCCAGTGTGCGTAACCTTCTTCCGTCTTCGGACGGTAGTGATTGGTTAAGATTTGGCGTAAGGTTCATGTGCCAACGCCCTGTGCGGGATGAAACCTCTACTACCCTAGGAATGCCAGGCAGGTACCCCACCCTCGGGTGGGATCTGAGCCTGGGCTAATTGTCTACGGGTAGTTTCATTTCCAATTCTTCTATGTCGGAGTC
B2: Aichivirus DVI2169 (nucleic acid, listed as Aichivirus sp.)
DNA: TACTCCATTCAGCTTCTTCGGAACCTGTTCGGAGGAATTAAACGGGCACCCATACACCCCCACCCCCTTTTCTGCAACTTAAGTATGTGTGCTCGTAATCTTGACTCCCACGGAATGGATCGATCCGCTGGAGAACAAACTGCTAGATCCACATCCTCCCTTCCCCTGGGAGGACCCCGGTCCTCCCACATCCTCCCCCCAGCCTGACGTATCACAGGCTGTGTGAAGTCCCCGCGAAAGCTGCTCACGTGGCAATTGTGGGTCCCCCCTTCATCAAGACACCAGGTCTTTCCTCCTTAAGGCTAGCCCCGATGTGTGAATTCACATTGGGCAACTAGTGGTGTCACTGTGCGCTCCCAATCTCGGCCGCGGAGTGCTGTTCCCCAAGCCAAACCCCTGGCCCTTCACTATGTGCCTGGCAAGCATATCTGAGAAGGTGTTCCGCTGTGGCTGCCAGCCTGGTAACAGGTGCCCCAGTGTGCGTAACCTTCTTCCGTCTCCGGACGGTAGTGATTGGTTAAGATTTGGTGTAAGGTTCATGTGCCAACGCCCTGTGCGGGATGAAACCTCTACTGCCCTAGGAATGCCAGGCAGGTACCCCACCTTCGGGTGGGATCTGAGCCTGGGCTAATTGTCTACGGGTAGTTTCATTTCCAATTCTTTTATGTCGGAGTC
B3: A73-675 (nucleic acid)
DNA: TTACTCCATTCAGCTTCTTCGGAACCTGTTCGGAGGAATTAAACGGGCACCCATACTCCCCCCACCCCCCTTTTGTAACTAAGTATGTGTGCTCGTGATCTTGACTCCCACGGAACGGACCGATCCGTTGGTGAACAAACAGCTAGGTCCACATCCTCCCTTCCCCTGGGAGGGCCCCCGCCCTCCCACATCCTCCCCCCAGCCTGACGTATCACAGGCTGTGTGAAGCCCCCGCGAAAGCTGCTCACGTGGCAATTGTGGGTCCCCCCTTCATCAAGACACCAGGTCTTTCCTCCTTAAGGCTAGCCCCGGCGTGTGAATTCACGTTGGGCAACTAGTGGTGTCACTGTGCGCTCCCAATCTCGGCCGCGGAGTGCTGTTCCCCAAGCCAAACCCCTGGCCCTTCACTATGTGCCTGGCAAGCATATCTGAGAAGGTGTTCCGCTGTGGCTGCCAACCTGGTGACAGGTGCCCCAGTGTGCGTAACCTTCTTCCGTCTCCGGACGGTAGTGATTGGTTAAGATTTGGTGTAAGGTTCATGTGCCAACGCCCTGTGCGGGATGAAACCTCTACTGCCCTAGGAATGCCAGGCAGGTACCCCACCTCCGGGTGGGATCTGAGCCTGGGCTAATTGTCTACGGGTAGTTTCATTTCCAATCCTTTTATGTCGGAGTC
B4: Kobuvirus 16317 (nucleic acid, listed as Kobuvirus sp.)
DNA: TTACTCCATTCAGCTTCTTCGGAACCTGTTCGGAGGAATTAAACGGGCACCCATACACCCCCATCCCCTTTCTGCAACTTAAGTATGTGTGCTCGTGATCTTGACTCCCACGGAATGGATCGATCCGCTGGAGAACAAACTGCTAGATCCACATCCTCCCTTCCCCTGGGAGGACCTTGGTCCTCCCACATCCTCCCCCCAGCCTGACGTACCACAGGCTGTGTGAAGCCCCCGCGAAAGCTGCTCACGTGGCAATTGTGGGTCCCCCCTTCATCAAGACACCAGGTCTTTCCTCCTTAAGGCTAGCCCCGATGTGTGAATTCACATTGGGCAACTAGTGGTGTCACTGTGCGCTCCCAATCTCGGCCGCGGAGTGCTGTTCCCCAAGCCAAACCCCTGGCCCTTCACTATGTGCCTGGCAAGCATACCTGAGAAGGTGTTCCGCTGTGGCTGCCAGCCTGGTAACAGGTGCCCCAGTGTGCGTAACCTTCTTCCGTCTTCGGACGGTAGTGATTGGTTAAGATTTGGTGTAAGGTCCATGTGCCAACGCCCTGTGCGGGATGAAACCTCTACTGCCCTAGGAATGCCAGGCAGGTACCCCACCCCCGGGTGGGATCTGAGCCTGGGCTAATTGTCTACGGGTAGTTTCATTTCCAATTCTTTTATGTCGGAGTC
B5: Aichivirus Chshc7 (nucleic acid, listed as Aichivirus sp.)
DNA: B4 DNA with C58T, C75T, C94T, G97A, C428T, T500C, C537T, C567T, C606T, T659C
B6: 18-675 (nucleic acid)
DNA: CCCACAGCAAGAATGCCATCATCTGTCCTCACCCCCAATTTTCCCTTTTCTTCCCCTGCAACCATTACGCTTACTCGCATGTGCATTGAGTGGTGCATGTGTTGAACAAACAGCTACACTCACATGGGGGCGGGTTTTCCCGCCCTACGGCCTCTCGCGAGGCCCACCCCTTCCCTCCCCTTATAACTACAGTGCTTTGGTAGGTAAGCATCCTGATCCCCCGCGGAAGCTGCTCACGTGGCAACTGTGGGGACCCAGACAGGTTATCAAAGGCACCCGGTCTTTCCGCCTTCAGGAGTATCCCTACTAGTGAATTCTAGCGGGGCTCTGCTTGGTGCCAACCTCCCCCAAATGCGCGCTGCGGGAGTGCTCTTCCCCAACTCACCCTAGTATCCTCTCATGTGTGTGCTTGGTCAGCATATCTGAGACGATGTTCCGCTGTCCCAGACCAGTCCAGTAATGGACGGGCCAGTGCGTGTAGTCGTCTTCCGGCTTGTCCGGGGCATGTTTGGTGAACCGGTGGGGTAAGGTTGGTGTGCCCAACGCCCGTACTTTGGTGACACCTCAAGACCACCCAGGAATGCCAGGGAGGTACCCCACCTCACGGTGGGATCTGACCCTGGGCTAATTGTCTACGGTGGTTCTTCTTGCTTCCACTTCTTTCTTCTGTTCACG
B7: Tropivirus A (nucleic acid)
DNA: TGTCGCATGTTGCCAACATCAAAATTCTGGGAGAGTCGCGAACTCCTTAACACTGCCTTGCCTCGACGGAGCCGTTGTTATAGTGTCGACGGGATACAAACATTAAACTAAACCCACTTGCCTCGACGGAACCCCTTACCTTTTATTTTATTTTATAGTATGAAAGTGAATCTTGTATGAATGTTCATAGAAAACTGCAAATGAGTACCACGTCTAACATGAGAGAATGATACTGGAGAAATCCAAGTTTAGAAGTCACTACGAATCCCAGCGGAAACAAGGGAATTCTGAGCTTCTAATAGGCGTTTAAGACTATTTGCAAAATTCTGGTGCGTAAGTGATATTTTCATTGCGTAGAACGCTGGTAACCACTCCGGCTAGTATAAGCATTGTTAGTCACTTATTATGAAACTCCACACTATCCTTTCTGGAGAAGCACACAAACTTACATGGTAAAGCTAGACCATTATCTTAAGCGGTGAGTACACTGCAACCTTGTAACAATGCTTGTATGACTACTTTTTGTATATCTTGAGCAATATTGTTGAGGTGGACATGTCCAAAGGTAATGTTGTTGGGAATGGAGGGGTCCATTTTCCCGTGCACGTAGTGTACTAGTATTGGGTGATAGCCTTGCGGCGGATCAACCATGTATTTTAATCCGTTGACTTTCAC
modifications: Tropivirus A
B8: A115-675 (nucleic acid)
DNA: ACCTTTGTGCGCCTGTTTTATACCCCCCCCAACCTCGAAACTTAGAAGTAAAGCAAACCCGATCAATAGCAGGTGCGGCGCACCAGTCGCATCTTGATCAAGCACTTCTGTAACCCCGGACCGAGTATCAATAGACTGCTCACGCGGTTGAAGGAGAAAACGTTCGTTACCCGGCTAACTACTTCGAGAAACCCAGTAGCATCATGAAAGTTGCAGAGTGTTTCGCTCAGCACTACCCCCGTGTAGATCAGGCCGATGAGTCACCGCACTTCCCCACGGGCGACCGTGGCGGTGGCTGCGTTGGCGGCCTGCCTATGGGGCAACCCATAGGACGCTCTAATACGGACATGGTGCGAAGAGTCTATTGAGCTAGTTAGTAGTCCTCCGGCCCCTGAATGCGGCTAATCCTAACTGCGGAGCACATACCCTTAATCCAAAGGGCAGTGTGTCGTAACGGGTAACTCTGCAGCGGAACCGACTACTTTGGGTGTCCGTGTTTCCTTTTAATTTTTACTGGCTGCTTATGGTGACAATTGAGGAATTGTTGCCATATAGCTATTGGATTGGCCATCCGGTGACTAACAGAGCTATTGTGTTCCAATTTGTTGGATTTACCCCGCTCACACTCACAGTCGTAAGAACCCTTCATTACGTGTTATTTCTCAACTCAAGAAA
B9: Aichivirus Goiania (nucleic acid, listed as Aichivirus sp.)
DNA: ACTCCATTCAGCTTCTTCGGAACCTGTTCGGAGGAATTAAACGGGCACCCATACACCCCCATCCCCTTTTTTGCAACTTAAGTATGTGTGCTCGTAATCTTGACTCCCACGGAATGGATCGATCCGCTGGAGAACAAACTGCTAGATCCACATCCTCCCTCCCCCCTGGGAGGACCTCGGTCCTCCCACATCCTCCCCCCAGCCTGACGTATCACAGGCTGTGTGAAGCCCCCGCGAAAGCTGCTCACGTGGCAATTGTGGGTCCCCCCTTCATCAAGACACCAGGTCTTTCCTCCTTAAGGCTAGTCCCGATGTGTGAATTCACATCGGGCAACTAGTGGTGTCACTGTGCGCTCCCAATCTCGGCCGCGGAGTGCTGTTCCCCAAGCCAAACCCCTGGCCCTTCACTATGTGCCTGGCAAGCATATCTGAGAAGGCGTTCCGCTGTGGCTGCCAGCCTGGTAACAGGTGCCCCAGTGTGCGTAACCTTCTTCCGTCCCCGGACGGTAGTGATTGGTTAAGACTTGGCGTAAGGTTCATGTGCCAACGCCCTGTGCGGGATGAAACCTCTACTGCCCTAGGAATGCCAGGCAGGTACCCCACCTTCGGGTGGGATCTGAGCCTGGGCTAATTGTCTACGGGTAGTTTCATTTCTAATTCTTTCATGTCGGAGTC

System: HEK293 cells
Format: cell-based, human
Conditions: luminescence from secreted Gluc in supernatant 24 hours after transfection of HEK293 cells; circular RNA encoding Gluc with the named IRES (UTR truncated to 675 nt)

| Molecule | Expression |
| --- | --- |
| B1 | 1.78E+07 |
| B2 | 2.98E+06 |
| B3 | 1.30E+08 |
| B4 | 2.03E+07 |
| B5 | 1.87E+07 |
| B6 | 6.04E+07 |
| B7 | 9.52E+04 |
| B8 | 5.93E+07 |
| B9 | 1.66E+07 |
